Experimental data published in the DeepSol protein solubility set.

experiment: soluble on expression in E. coli; label from the status in PepcDB or PDB records

Row | Sequence | soluble on expression in E. coli
1 | SGTVHARSLEPLPSSGPDFGGLGEEAEFVEVEPEAKQEILENKDVVVQHVHFDGLGRTKDDIIICEIGDVFKAKNLIEVMRKSHEAREKLLRLGIFRQVDVLIDTCQGDDALPNGLDVTFEVTELRRLTGSYNTMVGNNEGSMVLGLKLPNLLGRAEKVTFQFSYGTKETSYGLSFFKPRPGNFERNFSVNLYKVTGQFPWSSLRETDRGMSAEYSFPIWKTSHTVKWEGVWRELGCLSRTASFAVRKESGHSLKSSLSHAMVIDSRNSSILPRRGALLKVNQELAGYTGGDVSFIKEDFELQLNKQLIFDSVFSASFWGGMLVPIGDKPSSIADRFYLGGPTSVRGFSMHSIGPQSEGDYLGGEAYWAGGLHLYTPLPFRPGQGGFGELFRTHFFLNAGNLCNLNYGEGPKAHIRKLAECIRWSYGAGIVLRLGNIARLELNYCVPMGVQTGDRICDGVQFGAGIRFL | soluble
2 | MAHHHHHHMASVSSGVPLTAPSAQKLLQSVKYILLDVDGVVWSGPRVLPNIPQTLQYLRSLGKEIRFLTNNASVSRSSLAQLFRQRGIEGVKESEVYNSGYAAALRLRRICGAAEGNQERQEGNEPTSDKRLVRGNVFVIGEEGLHEELQRVLAPGYITYGMELHDAEKVGGYNSANAATAWKERILPAPLRQLKPPDGITDYGRGISLTDLSPVAVVVGLDLHFNMLKLAYASLCLHRGAGSNTDSEGDRIGGDRDRTPDKGLQKPVCFIATNEDPQIPIGEEGLLLPGAGGMVSALRTVSGRNPDAVCGKPHVDMARIMFEAEGITDARQCLMVGDRLTTDIAFGNAAGCRTLFVLSGAESMADIARAKSTGDSQLLPEFVAPSLASLMPDARDD | soluble
3 | MGHHHHHHGGHMSLIDLHIHSNYSDGQGSVEEIARRAKERGLKAIAIVDHSIELPFGLTEKKARMREIEIENAASLYGIKIYSGIECSINAAGEIVLPDFDFDFIIASVHEFVYGQAYYERVIRCLESHDVDVLGHPFSPLFGFDGRLAEMDEKLLDVVEERGVAVELNSSHKSPQDEFLQLCRDRKIAYSIGSDAHSLSGVGEVGWSVEKAKRYMAGAKLFTPEGGS | soluble
4 | MAKKIEKNIITGLDIGTSKIIALIGEVTSDGTIEIIGIGRHPSRGLKRGVVVDIETTVNSIQRAVQEAELMAGCEVRTVYAGIAGSHIRSLNSHGIVAIRDQEVSQADVERVIDAAKAVAIPADQ | not soluble
5 | VNKSQLIDKIAAGADISKAAAGRALDAIIASVTESLKEGDDVALVGFGTFAVKERAARTGRNPQTGKEITIAAAKVPSFRAGKALKDAVN | soluble
6 | SSVASALLLQEAQAGFCRVDGTIDNNHTGFTGSGFANTNNAQGAAVVWAIDATSSGRRTLTIRYANGGTANRNGSLVINGGSNGNYTVSLPTTGAWTTWQTATIDVDLVQGNNIVQLSATTAEGLPNIDSLSVVGGTVRAGNCG | soluble
7 | MGSDKIHHHHHHMINQAKIEHSGLVDDFIGLYQALNKDNLHLLAEVYDDNICFIDPMHQVNGLNALTQYFAKLYQNIGYIHFEIKEVLQDDTQASLFWQMQYRHPKLNKGEVVRVDGMSQLKFHQRIYFHRDYFDLGQMLYEHLPCMGGLIRLLKDRAAK | not soluble
8 | MRKLKITELNRISAEEFKQAEKLPLVVVLDDIRSLHNIGSVFRTSDAFRIECIYLCGITATPPHPEMHKTALGAEFTVDWKYVNNAVDAVDNLRKEGYIVYSIEQAEGSIMLDRLELDKTKKYAIVMGNEVKGVQQEVIDHSDGCIEIPQYGTKHSLNVSVTTGIVIWDLFKKLR | not soluble
9 | MSLIVKFCGFKTESDIKKIKKLEVDAVGFIHYPDSKRHVSLKQLKYLAKIVPDHIEKVVVVVNPQMSTIKRIINQTDINTIQLHGNESIQLIRNIKKLNSKIRIIKAIPATRNLNNNIQKYKDEIDMFIIDTPSITYGGTGQSFDWKLLKKIKGVDFLIAGGLDFEKIKRLEIYSFGQCGYDISTGIESHNEKDFNKMTRILKFLKGDEGHHHHHH | not soluble
10 | MKGLENAIRNLNSLDRQMVPRASIWAVNRVAQKAVSVATRKVARETVAGDNQVRGLPLKLVRQRVRLFKAGTDGKRSARIRINRGNLPAIKLGAAQVRMSKRRGKLLYRGSVLKIGPYLFRDAFIQQLANGRWHVMRRVNGKNRYPIDVVKIPLSGPLTQAFESATQSLIDEEIPKQLGYALKQQLRLYLSR | not soluble
11 | MATVDPIRYPIGTFQAPQQFEAGEVQEWIAAIRGLPSDLRTAVSGLNDEQLNTPYREGGWTVAQVVHHLADASMNAFLRTKWGVTEDGPTVKPFAESEWAKTADACLLPIEPSLLLLDGLHARWAALLESMTEADFHRTVRPEGAAGEMPLYVLTALYAWHGKHHTAQVASLRKRKGW | soluble
12 | MGSDKIHHHHHHMKFVIRDLNTKKVMKNAYRITKTKYETSLRVRVPGGLIDPESLAVVSKIASEYGNGQVHITTRQGFEILGINMEDMEEINKIIQPVIEKMNINQSEKNAGYPAAGTRNIAACIGNKVCPKAQYNTTEFAKRIEKAIFPNDLHFKVALTGCPNDCIKARMNDFGIIGMALPIYEKDRCVNCGACVKKCSKISVGALKTENNKVVRDKDKCIGCGECVLNCPTNAWTRDEKKYYRLAIMGRTGKKNPRLAEDFLLWVDEDSIIKIILNTYRYVEKYIDKDAPGGKEHIGYIIDRTGFMEFKKWALEGVELPEITKMYENIYWSGIKYL | not soluble
13 | MGTILDKIVNQKKKEVAALYETYTPVKEKRKTRSLVKALEQFTVIAEVKRASPSKGDINLHVDVRKQVKTYEECGAGAVSVLTDGQFFKGSFYDLQTAREESSIPLLCKDFIIDKIQIDRAYEAGADIILLIVAALTKEKLKELYSYVLEKGLEAIVEVHDEQELEIAIQLNPHVIGINNRNLKTFEVDLSQTEKLGKRLNEEKLLWISESGIHSKEDIIRVKRAGAKGVLVGEALMTSSSIHTFFEDCKVNI | not soluble
14 | PRVELEIPEDVDAEQDHLDITVEGDNGSVTRRLWYPDIDVSVDGDTVVIESDEDNAKTMSTIGTFQSHIENMFHGVTEGWEYGMEVFYSHFPMQVNVEGDEVVIENFLGEKAPRRTTIHGDTDVEIDGEELTVSGPDIEAVGQTAADIEQLTRINDKDVRVFQDGVYITRKPNRGDA | soluble
15 | MSLKKLLVIRNDKIGDFMLAWPSFAMLKASLPDCHITALVPKYTAALAELCPWIDAVIIDPGQQADKAQHKQLVQTVKAQQFDASINLFSTMYNALLVWKARIPYRLAPATKLAQIFYQHRIKQKRSQSAKPEYEYNLDLVRAFLRDIGQPIIEPNAPYLTFPAEQLAAQRSKLAEQLDIGPDKAWLFVHAGSGGSANNLSLEQYCELVTGVMDEHKQVVLTAGPGEEEKAAQLQSLLAEQGVLAALYAKNDGLVDFTRSLACAQLFIAGSTGPLHIAAALDVPTVGFFPAKRSATPLRWRPLNSQGKHIAFCPPPADDKANQENMGRIDMKSVLTELAPWLRSVQLEGHHHHHH | soluble
16 | MERIAFVYMGGDEFKWLFFEVYDRVRRFMKDVNLGIIPIYAGKIKLPPGMLVRVNAGNGYIKMYPFEAVVEALYGKLVEMRDDVKDDTLTKIFGITTFPIGSRKQYFDIYKKYLGIQVSIGNYNVLALSIKPFYTENRELFVERVFKGVLHEIGHLYGLSHCKNDCVMNPPNDLKDWDRRAPSYCNSCLRELKRKVKPMPLLLHRAYECFHC | not soluble
17 | MGHHHHHHSHMAALKEDRSYGLSCGRVSDGSKVSVFHVKLTDSALRAFESYRARQDSVSLRPSIRFQGSQGHISIPQPDCPAEARTFSFYLSNIGRDNPQGSFDCIQQYVSSHGEVHLDCLGSIQDKITVCATDDSYQKARQSMAQAEEETRSRSAIVIKAGGRYLGKKVQFRK | not soluble
18 | GIDVIGKKMTLCQLYAKQNAVRPNVKANTKSGRKYLMEILKNDRLGARSIDSIKPSDAKEWAIRMSENGFAYSTINNYKRSLRASFYIAIQDDYVRKNPFDFQLNTVIDDDTIPKTVLTSEQEARLLDFAKSDTVYHKNYDEILILLKTGLRISELCGLTVSDLDFENHLISVDHQLLRNTELGYYIETPKTKSSERQIPMEATCQALKRTLAKRDDRKCVEIDGYSHFLFLNRKGYPKTSGDFDRILRNLIKKYNKYHEEKLPHITPHTLRHTFCTNCANAGMNPKALQYIMGHANITMTLNYYAHATYKFGYG | not soluble
19 | GSMYQLQFINLVYDTTKLTHLEQTNINLFIGNWSNHQLQKSICIRHGDDTSHNQYHILFIDTAHQRIKFSSFDNEEIIYILDYDDTQHILMQTSSKQGIGTSRPIVYERLV | soluble
20 | MGSDKIHHHHHHMSNEFDSDRYSTYWAEEWLDVKQYSPIGRHTRRKIMQLLARCPAPDTFADFGSGEGSLLSMVHAKYPAARLFGCDFASESVRRCRQRLPQAEIVLKDLTDPEPPFAGRVSVGVCSEVLEHIEDDARALHNLGTWAEHVIITVPGGELDESSRAVGHLRHYTKDSLRGLARRAGLEVLHLEEWGFPFSYPWYARVRNKAGYGMMVGRYSMRKKLLCHALYLLFFGNDLFSSGNKLFMLCRGSKA | not soluble
21 | AHKKIFLVEDNKADIRLIQEALANSTVPHEVVTVRDGMEAMAYLRQEGEYANASRPDLILLDLNLPKKDGREVLAEIKSDPTLKRIPVVVLSTSINEDDIFHSYDLHVNCYITKSANLSQLFQIVKGIEEFWLSTATLPS | soluble
22 | QDSPNAIKAAVISSPMLGFYSGLLPKSIAKILVAIKLKFNNIISNTPWYFLGQKDYSPVNFTDNKLTHSIPRYQYFVDLYKKNKIIQLGGVTTHWLAQSIAAQKELFSKIVQLKTPILLLQASGDTVVCQQAQDDFCQQLHTLQPQSCPNGVPSNIDNAFHELFFETDDLRNKAITQSLAWFEQH | not soluble
23 | MGSDKIHHHHHHMHIKILKNRYPNIVVSKNPIKSSSDTISFFEEPYYFTIPKSNLSEEEAMLLHTLFPEPLPTFPKESTQFWFDLLFGNKELAMTNEKETYRITQFHIKTTTTKSMLQEWQKALLSFFSPEAELIMFSTNYGVIIEKSTGSLLGEEELIAVAGTLENDFYIQSTFFMGLFHPLNDRLRGLFAEERAIFNHNNREVVQTVASESLKVIALRMKESLITNELNDLFHQDDTWIPLIHTLFKNQGNISLTAKELFMHRNTIQYRLDKFYEQTNLSLRKMDGLLLAYLSTLQTNNSNHE | not soluble
24 | MDPRGILKAFPKRQKIHADASSKVLAKIPRREEGEEAEEWLSSLRAHVVRTGIGRARAELFEKQIVQHGGQLCPAQGPGVTHIVVDEGMDYERALRLLRLPQLPPGAQLVKSAWLSLCLQERRLVDVAGFSIFIPSRYLDHPQPSKAEQDASIPPGTHEALLQTALSPPPPPTRPVSPPQKAKEAPNTQAQPISDDEASDGEETQVSAADLEALISGHYPTSLEGDCEPSPAPAVLDKWVCAQPSSQKATNHNLHITEKLEVLAKAYSVQGDKWRALGYAKAINALKSFHKPVTSYQEACSIPGIGKRMAEKIIEILESGHLRKLDHISESVPVLELFSNIWGAGTKTAQMWYQQGFRSLEDIRSQASLTTQQAIGLKHYSDFLERMPREEATEIEQTVQKAAQAFNSGLLCVACGSYRRGKATCGDVDVLITHPDGRSHRGIFSRLLDSLRQEGFLTDDLVSQEENGQQQKYLGVCRLPGPGRRHRRLDIIVVPYSEFACALLYFTGSAHFNRSMRALAKTKGMSLSEHALSTAVVRNTHGCKVGPGRVLPTPTEKDVFRLLGLPYREPAERDW | soluble
